Data reported in the DeepSol protein solubility set.

Assay: soluble on expression in E. coli; label from the status in PepcDB or PDB records

Sequence	soluble on expression in E. coli
MAKTYKKIGEETKVIEATEPLTILLMGVDTGNVERTETWVGRSDSMILMTVNPKTKKTTMMSLERDILTRIESGNGQAHEAKLNSAYADGGAELAIETIQKMMNIHIDRYVMVNMRGLQKLVDAVGGITVNNILGFPISISDQEEFNTISIGVGEQHIGGEEALVYARMRYQDPEGDYGRQKRQREVIQKVMEKALSLNSIGHYQEILKALSDNMQTNIDLSAKSIPNLLGYKDSFKTIETQQLQGEGEILQGVSYQIVSRAHMLEMQNILRRSLGQEEVTQLETNAVLFEDLFGRAPVGDEDNLEHHHHHH	soluble
MTMLLDGGPQFPGLGVGSFGAPRHHEMPNREPAGMGLNPFGDSTHAAAAAAAAAAFKLSPAAAHDLSSGQSSAFTPQGSGYANALGHHHHHHHHHHHTSQVPSYGGAASAAFNSTREFLFRQRSSGLSEAASGGGQHGLFAGSASSLHAPAGIPEPPSYLLFPGLHEQGAGHPSPTGHVDNNQVHLGLRGELFGRADPYRPVASPRTDPYAAGAQFPNYSPMNMNMGVNVAAHHGPGAFFRYMRQPIKQELSCKWIDEAQLSRPKKSCDRTFSTMHELVTHVTMEHVGGPEQNNHVCYWEECPREGKSFKAKYKLVNHIRVHTGEKPFPCPFPGCGKIFARSENLKIHKRTHTGEKPFKCEFEGCDRRFANSSDRKKHMHVHTSDKPYICKVCDKSYTHPSSLRKHMKVHESQGSDSSPAASSGYESSTPPAIASANSKDTTKTPSAVQTSTSHNPGLPPNFNEWYV	soluble
MSLDDFCNIPKGKEVVFGFNVPQSGAYADEGMDELKAYQLAVKHLNGEGDGGMLKTMKPLALKGNGVLGKKVTFVSGDTQTKADQARATAKRMIEKDGAIMITGGSSSAEAVAVQSLCQDVGVIFMAGLTHSNDTTGKDKRAYGFRHFFNAYMSGVALGPVLAEAYGKDRAAYHLTADYTWGWTQEESMKDATEKQGWKTVKAVRTPLGAADFSQYITPVLNSGADVLILNHYGKDMINSLTQAVQFGLRDKMANGKKFEIVVPLFSELMAQGAGDAIKGIYGTANWDWKLEDAATSAFTKSFGAAYGTPPSQAAQTCYVQAILYADAVERAGTFNPSKVIAALEGFEFDGLGNGKTLYRAADHQCFKDVLVVQGKEKPKDKFDLLEVKKIVPASQVTYDPSIFGGELGSKDAKAEGHHHHHH	soluble
MSLHSVKASANRFTKTSQGRSWNTGNGSPDAICFAVDKPGIVVVGFAVYGGGGIHEYELEVLVDDSEHAGDSTHSHRWTSLELVKGTYTTDDSPSDIAEIRLDKVVPLKENVKYAVRLRNYGSRTANGDGGMTTVQCPDGVTFTFSTCSLSSNGTNQTRGQIPQILYYRSEFDGDLQSQLLSKANEEDKNCSRALSVVSTVVRAAKDLLHRALAVDADEGHHHHHH	soluble
MRGSHHHHHHGSADAYPSKAIRVIVPFAPGGSTDIIARLVTQRMSQELGQPMVVENKGGAGGAIGASEAARAEPDGYTLSIATVSTMAVNPACRPKDLPYDPIKDFQPVTNFANTANVVAVNPKFPAKDFKGFLEELKKNPGKYSYGSSGTCGVLHLMGESFKMATGTDIVHVPYKGSGPAVADAVGGQIELIFDNLPSSMPQIQAGKLRAMAIAWPTRIDAIKDVPTFADAGFPVLNQPVWYGLLAPKGTPMDVVNKLRDAAVVALKDPKVIKALDDQGSAPSGNTPEEFAKEIKEQYDWAQDVVKKQNIKLD	soluble
MFDKLKENEELWDLFTRKEEYSVTFRDAYERFPYYLSSHRNIFEPRVSKFLVENGLKPQYPDGKKFAVCLTHDIDAIYPDKLYPIVGPVKALSRGKLAEAVKAPFSRVNRKWNPCWNFREILALEAKYNAKSSFYFLALTSEETDFNYNIKDLETELGFISDSGWEVGLHGGHESYNSLEDIKEKKRRLEEVLGKKVVGYRNHYLRFRVPDTWELLSKAGFKYDTTFGYSDCAGFRNGMCHPYRPFNLNEGRQIDILEIPLVIMDRSLLKDYMRLNVKKAWECTKHLINTVEKYNGVITILWHNNMCIDGENLRYYEKVLEYCAEKNAWITSGEEIYNWWTSKIEPGNLEHHHHHH	not soluble
RSKYNAKKVVIDNIKFDSKAEAAYYQQLKLLKMSGEVVSFDLQPEFVLQESFRKNGKLYRAIKYKADFLVRYSDGHEELIDIKGMLTKEFRIKQKLFELRYMQSIKCLKLKGRNFVEV	not soluble
MITMIYKGNRAAWAYIVARTKVMKSRLLKPEDFRKLLNMEFDEIVRYIGETEYKKEIDELGYKFTGPRLLDHALYANLARTYRKLIEVSFGASKFLIMKYLEKWDVWNIINIIRGKMANVQPEVVDDILVPAGERDMDFWKTLLVKDIEEIVKSFEGTPYYEPLSKIGSEDMSKIEDGLYKVYYRELLKLNPSDFAMKLFLDFIKMEIDIRNVKTLLRLKAEDATPDEIMECTIPGGYELTEEELRKLAAMPIDEMIKALEGYWFWNDVQIEGKEVAAVEIEFDKVWIKTISKRASNYPLSILPVLQYIVLKKVEVDNLRVLGWGKYYGLPSEEIERQMVIL	not soluble
MGSDKIHHHHHHMTRILVLYFTRGGHTAKIANAIAEQLTLRGAKVDLVDINSAAATRINWSDYQLVALGACVLYGTYDKSVFQFIEQHVQALSFLPNSFFCVNVVARNPEKRIPENNKYLQKFITLSPWTPADLKIIAGKVDYPSWPWYDRLMIQLIMKITKGPTDPKAVIDYTDWEDVKVYADHLLTLVEVAEPA	not soluble
MTTSPDPYAALPKLPSFSLTSTSITDGQPLATPQVSGIMGAGGADASPQLRWSGFPSETRSFAVTVYDPDAPTLSGFWHWAVANLPANVTELPEGVGDGRELPGGALTLVNDAGMRRYVGAAPPPGHGVHRYYVAVHAVKVEKLDLPEDASPAYLGFNLFQHAIARAVIFGTYEQR	soluble
MEGISKPMERYDSVVFAGMKQDGTIEFIKVYALNEDLAITILDQFLRENNLHPSDFVVIQRGLEDIKGKDIISTRTEEDLSAMLARLGLRLVSNGVLHTRGAEKIYQITAISKSLIERLQGEDKDKVSTIIKEEISIDFSNLKLPEKYMKKLLLLSLMEDTFILNRAELNVPEVIKRAVKGVVSIPRLIERDNIIIKVFDEELHTVQGSYLDRVIITPPVVHWDAHIDELDSFSFQEVEENVYEPPLFVKAMKGFLVLTEPPRDLVVMLLKLKRRGEVKVSLKGRQIRIPLNFTLVVDTKYPERYSGLKFPIRINLPPFDDETFAQMLSMVLGTKVPQDLVAMFPEEYKTFLGVEILSNLWKKLRKRGRKSEIELLKEMATIVTGGII	soluble
MGSDKIHHHHHHMVETKLIIRADDLGYSDAVNIGIERSVHKGIINNVGVMVNMPTTLDGLSMIRDTKVCLGLHVVISSGRPLLNPKFIPSIVDDDGAFLSSADYRKAPNDFVNLDEVILEIEAQYQKFIELVGRKPDYFEGHAVVSDNFFKGLLVVAKCHQLNLLQVTLNSGRPSLLFKGHSLHVFMESMNKDYNPYQTLKRAVLSSCDEEYPMMICHPGYLDDYLLKHSSLTTPRTKEVEMLTDPQVRAWLYQHQVRLIKYNEI	not soluble
MKKKLTGVALVLAAVSLMGIQPAGACTRAVYLGPDRMVVTGRTMDWKEDIMSNIYVFPRGMQRAGHNKEKTVNWTSKYGSVIATGYDIGTCDGMNEKGLVASLLFLPESVYSLPGDTRPAMGISIWTQYVLDNFATVREAVDEMKKETFRIDAPRMPNGGPESTLHMAITDETGNTAVIEYLDGKLSIHEGKEYQVMTNSPRYELQLAVNDYWKEVGGLQMLPGTNRSSDRFVRASFYIHAIPQTADAKIAVPSVLSVMRNVSVPFGINTPEKPHISSTRWRSVSDQKNKVYYFESTLTPNLFWLDLKKIDFSPKAGVKKLSLTKGEIYAGDAVKDLKDSQSFTFLFETPVM	soluble
